Source: publication PMC12350670

Target: recombinant mouse fibroblast activation protein (mouse) (UniProt P97321)
Assay: BLI; biotinylated bait protein (30 nM) loaded on Octet streptavidin (SAX) biosensors; serially diluted VNAR-Fc (300-0.412 nM) as analyte; PBS with 1% BSA; kinetic analysis with a bivalent analyte model

Sequence of recombinant mouse fibroblast activation protein (mouse) (P97321 whole entry): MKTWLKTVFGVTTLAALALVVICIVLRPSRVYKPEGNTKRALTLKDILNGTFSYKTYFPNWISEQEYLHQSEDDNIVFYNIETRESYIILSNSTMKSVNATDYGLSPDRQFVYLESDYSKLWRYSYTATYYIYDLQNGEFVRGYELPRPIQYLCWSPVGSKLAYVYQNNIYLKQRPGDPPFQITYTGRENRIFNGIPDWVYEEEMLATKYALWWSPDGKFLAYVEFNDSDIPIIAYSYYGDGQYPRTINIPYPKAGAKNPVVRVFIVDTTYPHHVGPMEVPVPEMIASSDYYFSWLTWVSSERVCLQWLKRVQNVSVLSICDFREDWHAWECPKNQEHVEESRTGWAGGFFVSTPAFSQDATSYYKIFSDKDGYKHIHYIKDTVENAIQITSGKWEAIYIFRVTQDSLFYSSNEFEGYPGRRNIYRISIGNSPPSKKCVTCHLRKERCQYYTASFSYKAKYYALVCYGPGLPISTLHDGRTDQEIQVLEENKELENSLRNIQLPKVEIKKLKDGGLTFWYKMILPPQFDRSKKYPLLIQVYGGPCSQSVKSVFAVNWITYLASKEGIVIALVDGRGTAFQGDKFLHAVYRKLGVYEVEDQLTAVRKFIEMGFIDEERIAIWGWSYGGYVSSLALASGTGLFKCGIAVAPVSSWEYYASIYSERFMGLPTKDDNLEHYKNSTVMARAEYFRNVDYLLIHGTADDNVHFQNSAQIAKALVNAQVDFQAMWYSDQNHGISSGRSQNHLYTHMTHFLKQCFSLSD

Kd [nM]	Binder
79.5	NGS2405-Fc (Fc fusion) ARVDQTPQTITKETGESLTINCVLRDSNCALSFTYWYRKKSGSTNEESISKGGRYVETVNSGSKSFSLRINDLTVEDSGTYRCNVYVGGGCPHWIDVYGDGTAVTVN
14.2	H4-Fc (Fc fusion) ARVDQTPQTITKETGESLTINCVLRDSNCALSSTYWYRKKSGSTNEESISKGGRYVETVNSGSKSFSLRINDLTVEDSGTYRCNVYVAGMSPCLSWGDVYGDGTAVTVN
